The record followed here is patent publication US20240075139A1.

B1: 5T0223 (antibody, V domains shown)
VH: EVQLVESGGGLVKPGGSLRLSCEASGFTFRNTWMNWVRQAPGKGLEWVGRIKSNTDGGTADYAAPVKGRFTISRDDSKSTLFLEMISLRTEDTGFYYCTKGGPGAHSWGLGTLVTVSS
VL: QSVLTQPPSVSGAPGQRVTISCTGSSSNIGAGYDVQWYQQLPGTAPKVLIYHNTNRPSGVPDRFSGSRSGTSASLVITGLQAEDEADYYCQTYDSRLSDHWVFGGGTKLTVL
B2: 5T0180 (antibody, V domains shown)
VH: EVQLVESGGGLVKPGGSLRLSCAASGFSFGNAWMNWVRQAPGKGLEWVGRIKSKSDGGTTDYAAPVKDRFIISRDDSKKTLYLQMNSLRREDTAVYYCVRGPFYCDTCGPNDYWGQGTLVTVSS
VL: QSVLTQPPSVSGAPGQRVTISCTGSSSNIGAGYDVQWYQQLPGTAPKVLIYGNNNRPSGVPDRFSGSKSGSSASLAITGLQAEDEADYYCQTYDSRLRDQWVFGGGTKLTVL
B3: 4T0578 (antibody, V domains shown)
VH: EVQLVESGGALVQPGGSLRLSCAASGFTFSRYDIHWVRQASGKGLEWVSAIGKAGDAYYAGSVRGRFTISRENAKNSLYLQMNSLRAGDTAVYYCARASFGDLYFDLWGRGTLVTVSS
VL: DIVMTQSPDSLAVSLGERATINCKSSQSLLHSSNNKNSVAWYQQKPGQPPKLLIYWASTREFGVPDRFSGSGSGTDFALTISSLQAEDVAVYVCQQYYNSPLTFGPGTKVDIK
B4: 1T0139 (antibody, V domains shown)
VH: QVQLQESGPGLVKPSETLSLTCIVSGGSLSSYYWSWVRQPAGKGLQWIGHIYTTGSTNYNPSLKSRVTMSIDTSKNQFSLRLSSVTAADTAVYYCARESYRYNAYDIHPFDYWGQGTLVTVSS
VL: SYELTQSSSVSVSPGQTASITCSGDKLGDNYVCWYQQKPGQSPTLVIYQDNRRPSGIPERFSGSNSGNTATLTIRGTQALDEADYYCQAWASNTVVFGGGTKLTVL
B5: 4T0306 (antibody, V domains shown)
VH: QVQLQQSGPGLVRPSQTLSLICAISGDSVSDNNAAWNWIRQSPSRGLEWLGRTYFRSRWYNDYPESLKGRVIINPDTAENQVSLQLSSVTPGDTAVYYCVREYYDLWNGFYPGGAMDVWGQGTTVTVSS
VL: DIQLTQSPSSLSASVGDRVTITCRASQDISDFLNWFQQKPGKAPKLLIYDVSKLARGVPSRFSGSASGTDFTFTISSLQPEDIATYYCQQYDDLPRTFGQGTKLEIK
B6: 4T0429 (antibody, V domains shown)
VH: QVQLQQWGAGLLKPSETLSLTCAVYRGSFITYYWSWVRQPPGRGLEWIGEIYKDGSASYNPSLKNRVTISLDMSKNHFSLNLDSVTAADTAVYYCARHGHTGMDVWGQGTTVTVSS
VL: QSVLTQPPSTSGTPGQRVTISCSGSSSNIGLNYVYWYQQLPGTAPKLLIYRNNQRPSGVPDRFSGSKSGTSASLAISGLRSEDEADYYCAAWDDSLSAYIFGTGTKVTVL
B7: 4T0570 (antibody, V domains shown)
VH: QVQLVQSGAEVKKPGASIKVSCKASGYTFVSKYIHWVRQAPGQGLEWMGIINPSGGRTDYAQKFQGRVTISRDTSTSTVYMELSSLRSEDTAFYYCARALPFRVTGARDVFDIWGQGTMVTVSS
VL: DIQMTQSPSSLSASVGDRVTITCRASQGISTNLAWFQQRPGKAPKSLVYAASTLQNGVPSKFSGSGSGTDFTLTISSLQPEDFATYYCQQYYTYPLTFGGGTKVEIK
B8: 4m0368 (antibody, V domains shown)
VH: QVQLQESGPGLVKPSGTLSLTCAVSGGSISGTNWWTWVRQPPGRGLEWIGEIYYRGSPNYNPSLKSRVTISVDQSKSQFSLKLTSVTAADTAVYYCLRLSHYGGAWGQGTLVTVSS
VL: DIQLTQSPSSLSASVGDRVTITCRASQSISTYLNWYQQKPGKAPKFLIFSASNLQSGVPSRFSGGGSGTDFTLTISSLQPEDFATYYCQQTYNTPRTFGQGTKVEIK
B9: 5T0337 (antibody, V domains shown)
VH: EVQLVESGGGLVKPGGSLRISCAASGFTFNNAWMNWVRQSPGKGLEWVGRIKSKSDAGTTDYAAPVKGRFIISRDDSKKTLFLQMNSLKIEDTAIYFCMTGFEHTYSYFDLWGRGTQVTVSS
VL: QSVLTQPPSVSGAPGQRVIISCIGGSSNIGAGYDVKWYQQLLPGTAPRLLIYGNTNRPSGVPDRFSGSKSGTSASLAITGLQAEDEADYYCQSYDSRLRDAWVFGGGTKLTVL
B10: 3T0265 (antibody, V domains shown)
VH: EVQLVESGGNLAKPGGSLRLSCAASGFTFSDAWMTWVRQAPGKGLEWVGRIKSNADGGATEYAAPVRGRFTISRDDSRSSLFLQMNSLKTEDTAVYYCLTPPPRRYWGQGILVTVSS
VL: QSVLTQPPSVSGAPGQRVAISCTGSYSNIGAGYDVHWYQQFPGAAPKLLIYAYTNRPAGVPDRFSGSKSGSSASLVISGLQADDEADYYCQSYDARLRDGEVFGGGTKLTV
B11: 3T0468 (antibody, V domains shown)
VH: EVQLVESGGHLIQPGGSLRLSCAASGFTFRIYDMHWVRQGRRKGLEWVSAIGAAGDTYYSDSVKGRFTISRENAKSSLYLQMNSLSVGDTAVYYCARAAFGAVYYDNWGQGILVTVSS
VL: EIVLTQSPGTLSLSPGERATLSCRASENVDSRFLVWYQQKVGQAPRLLIYGASRRATGIPDRFSGSGSGTDFALTISRLEPEDLAVYYCQQYGRSPITFGQGTRLEIK
B12: 3T0258 (antibody, V domains shown)
VH: QVQLVQSGAEVKQPGASVKVTCKASGSTRSSYDLIWVRQAPGQGLELMGRVNTHNGNTDYAQKFQGRVTMTTDTSTTTAHMELRNLRSDDTAVYYCAWRRSSWFAFDVWGQGTAVTVSS
VL: EIVLTQSPGTLSLSPGERGTLSCRASQSISGNYLGWYQQSPGQAPRLLIYGASNRATGVPDRFSGSGSGTDFTLTISRLEPEDFAVYYCQQYVSSPYTFGQGTKLEIK
B13: 4T0726 (antibody, V domains shown)
VH: QVQLVQSGVEVKEPGASVRVSCKASGYTFTHYGITWVRQAPGQGLEWMGWISGYNGNTDYAQKFQGRITMTTDTSTSTAYMELGRLTSDDTAVYYCARTITMILLGWFDPWGQGTLVTVSS
VL: EIVLTQSPGTLSLSPGERATLSCRASQSVSSNYLAWYQQKPGQAPRLLISGASNRATGLPDGFSGSGSGTDFTLTISRLEPEDFAVFFCQQYGTSPLTFGPGTKVDIK
B14: 1T0473 (antibody, V domains shown)
VH: QVQLVQSGAEVKKPGASVKVSCKASGYTFPSYEINWVRQATGQGLEWMGWMDPKSGKTGYAQKFQGRVTMTRNPSISTAYLELSSLRSEDSAVYYCARGNQWFGELLSSYYGLDVWGQGTTVTVSS
VL: EIVLTQSPGTLSLSPGEGATLSCRASQSVSSSFLTWYHQKPGQAPRLLIYGASNRATGVPDRFSGGGSGTDFTLTISRLEPEDFGVYYCQQYGSSLITFGPGTKVDIK
B15: 1T0655 (antibody, V domains shown)
VH: QVQLVQSGAEVKKPGASVKVSCKASGYTFTSYYMHWVRQVPGQGLEWMGIIKAGNGGTNYAQNFQGRITVTRDTSTSTVYMELSSLRSEDTAVYYCARDRQWLPLNGYSYFNYGMDVWGQGTTVTVSS
VL: DIQMTQSPSSLSASVGDKITITCRASQSISTYLNWYQQRPGRAPKLLIFGASSLQSGVPSRFSGSGSGTVFTLSISSLQPDDFGSFYCQQSFSSPRTFGQGTKVEIK
B16: 5T0202 (antibody, V domains shown)
VH: EVQLVESGGGLVKPGGSLRLSCGASGFSFNDAWMNWVRQAPGKGLEWVGRIKSKADGGGSDTAAPVKGRFIISRDDSKNTLFLQMERLKSEDTGVYYCTTSLNIWGTYRDCWGQGTLVTVSS
VL: QSVLTQPPSVSGAPGQRVTISCTGSYSNIGAGYDVRWYQQLPETAPKLLIYGNNNRPSGVPDRFSGSKSGTSASLAITGLQAEDEADYYCQSYDSRLRDSWVFGGGTRLTVL
B17: 1T0201 (antibody, V domains shown)
VH: EVQLVESGGGLVKPGGSLRLSCAAAGFSFSKAWMNWVRQAPGKGLEWVGRIKSKTDGGTTDYTAPVKGRFIISRDDSKNMLYLQMNSLKAEDTAVYWCTTRVDMEWGKYGTDVWGQGTTVTVSS
VL: QSVLTQPPSVSGAPGQRVTISCTGSSSNIGAGYDVHWYQKLPGTAPKLLIYDKNIRPSGVPDRFSGSKSGVSASLAITGLQAEDEADYYCQSYDSRLSDSWVFGGGTKLTVL
B18: 5T0376 (antibody, V domains shown)
VH: QVQLQESGPGLVKPSETLSLTCSVSGASISTLYWSWIRQPPGKGLEWIGYMHSSGTTNYNPSLESRVTMSIDTSRNQFSLKLTSVTAADTAVYYCARGLLGPGDSWGQGTLVTVSS
VL: QSALTQPASVSGSPGQSITISCTGTSSDVGGYNYVSWYQQYPGKAPKLMIYEVTSRPSGVSNRFSGSKSGNTASLTISGLQAEDEGDYYCSSYKTGSTPVVFGGGTKLTVL
B19: 1T0451 (antibody, V domains shown)
VH: QVQLVQSGAEVKKPGASVKISCEASGYNFNGYVIDWVRQAPGQRLEWMGWINPGNGNTKFSPKFQGRVTFTRAASASTAYMELSSLTSEDTALYFCARGRGTSYYYAFDVWGQGTTVTVSS
VL: DIQMTQFPSSLSASVGDRVTISCRASQNISNYLNWYQQKPGKAPKFLIYAASNLQSGVPSRFSGSGSGTGFTLTISNLQPEDFAIYYCQQTYRSPLYTFGQGTKLEIK
B20: 4T0784 (antibody, V domains shown)
VH: QVQLVESGGGVVQPGRSLRLSCAASGFTFSTYGVHWVRQAPGKGLEWVGVIWYDGSKKYYADSVKGRFTISRDNSKNTLYLQMNSLRAEDAAVYRCVRGGDLLLLPDSIDYYGMDVWGQGTLVTVSS
VL: KDHDPQAPVSLSASVGDRVTITCRASQGIRNDLGWYQQKPGKAPKRLIYAASSLQSGVPSRFSGSGSGTEFTLTISSLQPEDFATYYCLQHNTYPFSFGPGTKVDIK

The assay deals with EBOV Mayinga (GenBank: NC_002549) (Zaire Ebolavirus (EBOV Mayinga)) (UniProt Q05320). Put plainly: cell-based or functional assay.
UniProt Q05320, sequence (Q05320 33-676 limits assumed): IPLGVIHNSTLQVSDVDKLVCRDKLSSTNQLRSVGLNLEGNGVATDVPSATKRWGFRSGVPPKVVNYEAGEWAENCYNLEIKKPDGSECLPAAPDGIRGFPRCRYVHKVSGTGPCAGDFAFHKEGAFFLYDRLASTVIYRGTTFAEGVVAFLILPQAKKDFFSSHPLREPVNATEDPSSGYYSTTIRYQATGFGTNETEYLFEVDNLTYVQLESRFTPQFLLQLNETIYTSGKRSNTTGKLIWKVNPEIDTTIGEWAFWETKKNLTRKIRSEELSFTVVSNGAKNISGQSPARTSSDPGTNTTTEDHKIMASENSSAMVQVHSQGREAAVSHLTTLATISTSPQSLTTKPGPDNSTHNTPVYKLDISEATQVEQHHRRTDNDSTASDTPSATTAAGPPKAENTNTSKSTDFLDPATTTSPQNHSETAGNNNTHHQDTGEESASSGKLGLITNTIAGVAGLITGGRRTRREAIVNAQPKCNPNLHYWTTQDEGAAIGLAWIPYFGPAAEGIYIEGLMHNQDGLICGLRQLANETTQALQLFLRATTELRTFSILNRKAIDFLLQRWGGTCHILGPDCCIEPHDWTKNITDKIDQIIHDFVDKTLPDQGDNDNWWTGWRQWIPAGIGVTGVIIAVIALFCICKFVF
As to B1, the neutralization concentration (GMC, CPE reduction on Vero C1008 cells) came to 1.86 µg/mL.
Take B2: the neutralization concentration (GMC, CPE reduction on Vero C1008 cells) was 12.5 µg/mL.
Turning to B3, the neutralization concentration (GMC, CPE reduction on Vero C1008 cells) worked out at 0.45 µg/mL.
The molecule B4 came in with a neutralization concentration (GMC, CPE reduction on Vero C1008 cells) of 7.44 µg/mL.
In the case of B5, the neutralization concentration (GMC, CPE reduction on Vero C1008 cells) amounted to 100 µg/mL.
B6: the neutralization concentration (GMC, CPE reduction on Vero C1008 cells) was 35 µg/mL.
To B7 belongs 0.09 µg/mL; to B8, 0.13 µg/mL.
To B9 belongs 2.21 µg/mL; to B10, 0.44 µg/mL; to B11, 2.1 µg/mL.
B12 returned a neutralization concentration (GMC, CPE reduction on Vero C1008 cells) of 0.06 µg/mL.
To B13 belongs 2.56 µg/mL; to B14, 2.63 µg/mL.
The result for B15 reads 0.08 µg/mL; that for B16, 2.5 µg/mL.
Molecule B17 yielded a neutralization concentration (GMC, CPE reduction on Vero C1008 cells) of 2.63 µg/mL.
Turning to B18, the neutralization concentration (GMC, CPE reduction on Vero C1008 cells) came to 12.5 µg/mL.
The result for B19 reads 2.5 µg/mL.
On to B20, for which the neutralization concentration (GMC, CPE reduction on Vero C1008 cells) came out at 1.86 µg/mL.
